Here are results for two compounds from article PMC5014320, “Screen of Non-annotated Small Secreted Proteins of Pseudomonas syringae Reveals a Virulence Factor That Inhibits Tomato Immune Proteases” (PLoS Pathogens, 2016).

The target in assay [1] is papain (UniProt P00784). Description: enzyme inhibition kinetics (Lineweaver-Burk).
For assay [2], the target named is T1, papain (Carica papaya, UniProt P00784).
T1 construct: commercial purified papain (Sigma-Aldrich)
T1 sequence (P00784 134-345): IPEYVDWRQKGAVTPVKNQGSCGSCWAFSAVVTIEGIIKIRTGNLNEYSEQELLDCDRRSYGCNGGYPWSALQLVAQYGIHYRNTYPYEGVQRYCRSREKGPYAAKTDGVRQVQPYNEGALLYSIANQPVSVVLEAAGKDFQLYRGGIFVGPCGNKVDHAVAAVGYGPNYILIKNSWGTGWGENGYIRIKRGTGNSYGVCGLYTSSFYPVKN
Description: chromogenic protease assay, Lineweaver-Burk. The format is biochemical. Conditions: pH 6.8, 1 mM glutathione, 37 °C, 0.1-5 mM BAPNA.

Where a name gives a salt, the structure may show the parent alone.

Take “C14-inhibiting protein-1 (Cip1), wild type (natural protein)”: the Ki in assay [1] amounted to 3.98 nM.

For the compound `N=C(N)NCCC[C@H](NC(=O)c1ccccc1)C(=O)Nc1ccc([N+](=O)[O-])cc1` [BAPNA, Nα-Benzoyl-L-arginine 4-nitroanilide hydrochloride], the “chromogenic protease assay, Lineweaver-Burk” value in assay [2] is “classical protease inhibition assays on purified papain using the chromogenic substrate BAPNA”.

Usually Ki stands for the dissociation constant of the complex between target and ligand, obtained from inhibition or displacement. A lower Ki goes with higher affinity.
